Laboratory results from article PMC8514949.

Molecular target: PI-3-kinase (human (endogenous in Caco2)) (UniProt P42338)
Test: co-IP; as the basal co-IP, but Caco2 Dsg2^WT cells incubated for 24h with TNFα (100 ng/ml) before lysis; Dsg2/PI-3-kinase ratio of optical densities, fold of controls, n=4

Sequence of UniProt P42338 (P42338 whole entry): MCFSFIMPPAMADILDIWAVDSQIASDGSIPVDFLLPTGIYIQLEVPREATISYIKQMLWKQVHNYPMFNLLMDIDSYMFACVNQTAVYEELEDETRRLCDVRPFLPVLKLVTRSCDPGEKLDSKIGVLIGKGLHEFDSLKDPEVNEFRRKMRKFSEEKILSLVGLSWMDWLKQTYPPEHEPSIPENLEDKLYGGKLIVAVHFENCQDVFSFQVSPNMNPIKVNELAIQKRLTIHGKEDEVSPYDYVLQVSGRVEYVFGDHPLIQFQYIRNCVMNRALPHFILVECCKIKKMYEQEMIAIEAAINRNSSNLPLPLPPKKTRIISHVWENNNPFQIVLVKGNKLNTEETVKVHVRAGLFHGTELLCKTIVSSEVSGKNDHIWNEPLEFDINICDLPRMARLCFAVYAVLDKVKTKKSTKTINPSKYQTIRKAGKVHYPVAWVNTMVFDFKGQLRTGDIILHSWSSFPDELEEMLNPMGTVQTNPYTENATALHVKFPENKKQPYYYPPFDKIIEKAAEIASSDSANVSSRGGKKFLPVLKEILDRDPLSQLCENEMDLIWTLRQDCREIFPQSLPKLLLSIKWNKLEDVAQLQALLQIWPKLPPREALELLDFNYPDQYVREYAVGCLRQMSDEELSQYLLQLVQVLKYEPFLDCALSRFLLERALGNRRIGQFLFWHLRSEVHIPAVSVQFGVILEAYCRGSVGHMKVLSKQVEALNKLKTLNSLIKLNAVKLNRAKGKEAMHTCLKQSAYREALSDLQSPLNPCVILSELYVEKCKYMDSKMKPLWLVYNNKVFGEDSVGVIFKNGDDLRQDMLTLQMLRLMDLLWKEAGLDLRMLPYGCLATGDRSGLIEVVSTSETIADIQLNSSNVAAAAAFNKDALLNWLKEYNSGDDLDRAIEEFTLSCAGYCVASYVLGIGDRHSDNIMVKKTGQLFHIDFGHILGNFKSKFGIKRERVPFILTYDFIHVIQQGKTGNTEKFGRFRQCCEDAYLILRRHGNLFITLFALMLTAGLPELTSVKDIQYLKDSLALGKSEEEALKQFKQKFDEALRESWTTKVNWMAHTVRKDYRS

fold of controls (Dsg2/PI-3-kinase ratio in the co-IP, after TNFα) (fold of controls): 0.34
Substance: Desmoglein 2 (from UniProt Q14126 50-1118) (natural protein)
